Reference: the DeepSol protein solubility set

test: soluble on expression in E. coli; label from the status in PepcDB or PDB records

Sequence	soluble on expression in E. coli
MSFFKKLKEKISKQTDTVTEKFKQGLEKTRNSFADKVNDLVFRYRKVDEDFFEELEEILIGADVGVSTVMELIDQLKEEVQRRNIQDPREVQAVISEKLIEIYKGDSDFTNEVNMQKDGLTVVLFVGVNGVGKTTTIGKMAHKFKSEGKSVLLAAGDTFRAGAIEQLEVWGDRVGVEVIKQGSGSDPAAVMYDAVQAAKARNVDVLLCDTAGRLQNKVNLMKELEKVKRVIEREVPGAPHEVLLVIDATTGQNGLSQAKTFREATNVTGIVLTKLDGTAKGGIVLAIRNEMDVPVKFVGLGEQMDDLQQFDPEQYVYGLFANLVETEEV	not soluble
MTFLRYAIYFLPPASEAWAGFGASWLGWDVETGQELAHPAETGLDVAALTATPRKYGLHATMKPPFRLAEGQDVDALRRACATLAASRPAVTLDGLEIARLGRFLALRPVGELGALNALAAACVTELDPFRAPATPQELVRRRAARLSPEQDAHLLSWGYPYVLDQFRFHITLTGRLDDDMLMQAQTLLQRRLGPLLPVPFTLADLALVGEAGDGRFHLIHRYALSR	not soluble
MAFNTPTLSTLIKQGEQQFQYRFPTLKRHNVIGVINRICAALSAGEHMHLDWLARQIIPTTAEEDYLIEYCLYKGIVRKQASTATGLVTVTAANDTTIPAGTVFEDTNTGLTFITTQETVVKAGTADIAVKCETTGVEGNLKAGTSLSLTSAILGLLPTATVKVMSGGADIESLSRLLARLIYRVQYPPAGGASHDYIRWATEVPGVTRAWCFERYYGGGTVGVAFACDEREDILPTPEDIARVRAYIEGHKNEVTGQFEGMPANVELYVFAPQFQAVNFKIRLAPNTPTLRQAVRKSLAAYLANAGVGALLYLSQIRATVSNTAGEVDNSVIFPTADVQLLSDNIAILGDIEWL	not soluble
MGSDKIHHHHHHMMEKVTQMIAMLIKAWKKESVSQIDTPPVPATPEPKQQSPNNSACLTERVNTFLQTHYDFRYNRLTEETEFRPLSGAKTEFRPIGKRELNTLCMEAHAEGISCWDKDVSRYIYSTQIGEYHPFRLYMDELPPWDGIDRLTPLARRVSALPLWVKGFHTWMLGLAAQWEGKTGVHANSLAPILISAEQGRMKSTFCKSLMPKVLQRYYMDNLKLTSEGQAERLLSEMGLINLDEFDKYAESKMPLLKNLMQMSSLHVCKAYQRNFRDLPRIASFIGTSNRSDLMSDPTGSRRFFCVEVEKPINCEGIEHEQIFAQLKAELADGCPYWFDKETEREIQQNNAPFYRTCPAEEVFLSCFRTSASAEEKYLRLSAADIYKELKKRNAAALRGFNPNHFAQVLIKMGVERKHTEYGNVYLVVRR	not soluble
MKIVAVTACPTGIAHTYMAADALMKAAPKHNVQIKVETQGAMGIENQLTPHDIAQADRVLIVSDIEIEQPGRFEGTRKIQIPIEEVLLNVDKVFLVHCRD	soluble
MAKGIPYGISDFSRLIDQNYYYVDKTHFIPQIEEIANYLFLIRPRRFGKSVFLTMMRAYYDISQKDRFEERFGNLWIGKHPTPLQGIYQVLYFDFSKANLGRGSLEDNFNNYCCIQLNDFFSTYREYYQGEKELEQIIASTEAATKLHWLEATARRLGHLLYLIIDEYDNFTNVILSEQGKNLFRDLTHASGFYREYFKQFKGMFERIFLMGVSPVTLDDLSSGYNIDWNISVDPHFNMMMGFSETDVREMFGYYQKEGMLKGDIDAMINEMKPWYDNYCFAEASLKTDPRMFNCDMTLYYLRHRVNFDASPKELIDKNIRTDYSKLKMLARLDHENVSGEDRMSTIEEIAAKGEILVNLHTSFPAEKIVETDNFRSLLYYYGLLTMCGTRGDRIVMCIPNNCVREQYFGFLREYYQQRKEVFLPHLKDLIDDMAFDGQWRPLFEYIALAYKENSAIRDAIEGEHNLQGFFKAYLALASYYLVQPELEMNYGYCDFFLLPDKSRYPDTAHSYILELKYLPRTATDKELEEQAEEGRGQLKQYSRDKKVTTISEGTALHCILLQFKGWELIKCEEVSPKC	not soluble
MGSDKIHHHHHHMNLKDKTLLITGIDEFVGLRTAELAIAQGMKVRGLKSSTEQNKQLQNLGVEIIIGSITDSTIAQKACQGVDIVLHTDQLAEEAGAIKNFRDVNVGGTVNMAKAAKQAGVKTFVHLSSVMVYGFNYPNGVTESGPLSGENNPYCETKIEAETAVLELNNPPDFGIIVIRAGDVYGPGSIPWIVRPVLMMRQKLFACANDGKGVINHVYIDNLIDGIFLAIEKETYGEIFNITDGQETSWKEYFMRLAAMEGLSAPLSLPKDEIKLFLKLRVQGQKLFRKKVDILPESIDFMTRPYACSIVKAQSMLNYKPTIHLEEGMQRTHEWLQKTDIQSLIK	not soluble
GPGSMLRGCAAACGQCRESASAVYGQALWLLLRPWTRSPSLPSSTHARLGLRRALGTVTSSLSSSSSCATVHHPTRWVSRKSIEEQLPSNIKVDPNASATAGRENEGLGRDAFSSGINGIYGNRAESAMRGMLGPQGQADARESRAVPILGRASVQGTKYTLDRSTVFEHWRFHCSEPVGWHLSKLGSTTCKMVNDVNEAVESLQLQIIKGCNVFEIDGAASEVHQSIARGIYEALQAFELDRSGFVMVARCGLIKQPRFQDEITRVEASNTAAVRNRIIPIFERYKASSLPSTSLKSGFRISELDDSQLARLNLRRVDRTTAAGLSPDWLDAFFTNVAYNTRLECIDVLLLEGMHTLFDGRPDEHVDDDILQLFVYLERQVKQGVLQYYGVCSPHLAPPVPRNYPEMPPDALVPDKYRTPPKEPATINLYRLMALAERAGGADHHFRFVQYPFNLTQHQAISSPLPYDANHTLATLCKALGLTALGYSPLEAPNLMQLPERYHNFPMEADLKALRMNFFTVCERSVLKEMEIKDTIDKGPDTLPPLEHLFVASVYLAAQRQFTNLFFFTDWANYYMTPRFRRAMTRFKEASSADLKEWAKQYEQLISDLLRMRQRMFQHKHGKQAGLVNMAIDYVSPTLARCPMLNQKAINFATYGCNVLLCGFHVSRYFHEATELNPAKDGNLPIPEEELLALCSAETVSYANVSPPHPYMLEPLMGEGKISKQPSKGAAYLVRIDPQNPKFPDIPEELQTGDSDGEAPVSADGATAALHKDEAPEKAVKE	not soluble
MGSDKIHHHHHHMQILTVQMNIAGEWRDVAVVGFYAPEKGTGGPCVLNYDIEHVTSYFHQFAQTAVSVSLPVDNIPLRSPHWHRFLEDIMPAGSSRDYWVKRLGLQDMPNLERDFQLLKYGTIAPIGNLRIKESVPEKAKKSLPVTFSIADVSELQIDFIEYAQSRGAAAGGASGAGGAAPKLLVRLNEQQGVWIDTFQDDPRNLDQPYLVKFPRGKTTLDSDILRAEYHFYHELTQLGFETISVESMKLIEVERGPSLWLPRFDYGVEAGAMVSYGMESVYAILGEPTAKPLLHADVIRRLLAEFNKKENYGNTRTPLDVEAGLEGKSGIEAFVVEWVRRDLLNIAFGNSDNHGRNTSFIKHGNRVQLAPIYDFAPMKADYEMITRTFTWGEGMELGGVYNFPAIAEHLSDLLSPNDLMSALNETAVRLLGLELRLRQRGVPESILAHSGIGFATLEARMQQWGLL	not soluble
MSSVGAGFRLARAGWVLVREGVIAALPGEELSGLPKFGWQLARLFTRRRALAYQRSDRLAKAVVRLGPSYVKLGQFLATRPDVVGNDMALDLAMLQDKMHTFPKAEAVAAIEASLGRKVRDLYAEFGLEHHHHHH	not soluble
MSKDEIKKPVVLIYCDTIEGTNIYLKKICEGLEEEGVPFQIQQVEKVEDSVEVLAQNASRNSNLGIGIGVLKNGDCALLQRRLPPNLPIQTLRGEKYDPNLYRNIGINAARLAKNLPLVFA	not soluble
MKKSPKISLILEAFQNLEKAYVDLKKNLEIPKEEFVKNKLVQDRVRIDFNLAFESTMRVCRHLSAVYGVKTSSRDCLPKIAEHIGLPFADRLKKFSEFYFRYRDLKDTVSPEELYDFLKENLVLFKEFARGVVEYIKKTTGNYLLIDFDLLNEKAKFIKDSVKKIDFVLSQGEEEFKKTPMYYDRVKYFYQVAYDSLFDICKHLAPKFGIKKFGDDCLTKMVEKGVIPPEYYETVLKMTLLKNKLISTWEVSPEELYRSLKELNDKFIPVLREISKSLKLLLEKKAKEVGKEA	not soluble
PETVCWGHVEEVELINDGSGLGFGIVGGKTSGVVVRTIVPGGLADRDGRLQTGDHILKIGGTNVQGMTSEQVAQVLRNCGNSVRMLVARDPAGDISVT	soluble
MHHHHHHSSGVDLGTENLYFQSMTTSLEALPTGTVLTDKSGRQWKLKSFQTRDNQGILYEAAPTSTLTCDSGPQKQKFSLKLDAKDGRLFNEQNFFQRAAKPLQVNKWKKLYSTPLLAIPTCMGFGVHQDKYRFLVLPSLGRSLQSALDVSPKHVLSERSVLQVACRLLDALEFLHENEYVHGNVTAENIFVDPEDQSQVTLAGYGFAFRYCPSGKHVAYVEGSRSPHEGDLEFISMDLHKGCGPSRRSDLQSLGYCMLKWLYGFLPWTNCLPNTEDIMKQKQKFVDKPGPFVGPCGHWIRPSETLQKYLKVVMALTYEEKPPYAMLRNNLEALLQDLRVSPYDPIGLPMVP	soluble
GPGSMSHKRPQSSAGESNGAVDLKTPRFDPVSLGLPAEFQLTDYTRLKGCSCKLPQPKLLALLQELSATPGQKDVGMDCSIVPLHHTNSKGEALFLVSTTDFFFPSVSDPFLQGQIGAANVLSDLYSMGIPDCDTMLMLLAASTEMDEHERLITTREIMKGFAERARLATTTVTGGQTVMNPWPLIGGVAMAVVSEAEMVRPTGLLCAGDILVLTKPLGCQVAVNLKQWLLRPSPLYEEAIAGHISPEEIEELYNMATDSMRRLNREGARLMRKHGAHGATDVTGFGILGHANNFGAAQAVGDAPRSLCLVLERLPMFKTAVAASKQMNDKYRLLEGYSAETSGGLLVAFPSTTAAAAFCAELTAVDGGCPSWIVGHVEDRATNAVDGVYARLKDGYEIVEV	soluble
MSGNSSTDMYLFKKSLKELKGKKGKGTELISVYVPAGRRLSDISQYLRQELSQSSNIKSKTTMKNVQSAIEVILQRLKLLKEPLEMGVIIFAGMIPRGGPGTEKMEVYVLEPPEPVKTFVYRCDSLFYTDPLEDFIQDTEVYGVILVDRNEATIGTVKGKTITVLKKLTSGVPGKFKAGGQSARRLERLIDDAAHQFMVRIGEYATESFMPILEEKKLKGLLLGGPGNTKNEFAEKDYLHHELKKKIIDTFDLCYTEEFGIRELLDKASDLLRDLDLMKEKNLIQKFFKELIKDDGGLSAYGEAQVMKYLEMGAIDTLIVTEDIGITRVTVKCNNCDYAQEVNVKTNEMFKFEEQLKTKACPTCGGAMYIDEEKDIIEHLSDLCHMHNTDIIVVSTDTEEGSQISRAFKGMAAILRYKL	not soluble
MSLAKPTDIRIRDVRISAEHINYRTPIKFGGRVVNDVTLLNVALDVETADGRRGSGFGSMPMGNVWAWPTSTTSGDATLQAMVDIGTAIAEAAPQLDLSGHPLELTAAAHSQYGSIASTIAHKANITEAVPKLATLVAASPVEAAIHDAYGKALGLNSYNVLGADFANTDLASYLSPEFAGEYLDRYTLRTPQPQMPLYHLIGALDPLDQDELQNPVGDGLPETLGDWITADGLTHLKIKLNGDNLDWDVARVAKIDAVAIDAQAKRGCKAWQYSLDFNERCPNVQYILDFLAKLSESSPEALDRVQYIEQPTSRDLRANPENRMHAAAKIKPVVIDESLIDYESLLLAREQGYSGVALKACKGQSEALLMGAAAQKFGMFLCVQDLTCPGASFLHSASLAARMPTIAAIEGNGRQYCPAGNAEWAKRYPSMFDITQGYVGTAVLTEPGLGYEGHHHHHH	not soluble
MSLSTEPLASRMRPKNIDEIISQQHLVGPRGIIRRMVDTKKLTSMIFYGPPGIGKTSIAKAISGSTQYKFRQLNAVTNTKKDMQLVVEEAKMSGQVILLLDEIHRLDKAKQDFLLPHLENGKIVLIGATTSNPYHAINPAIRSRAQIFELYPLNDEDVRQALTRAIEDDENGLKTYQPKIDEDAMTYFSTQSQGDVRSALNALELAVLSADNDKDGYRHVTLQDAKDCLQKGAFVSDKDGDMHYDVMSAFQKSIRGSDVNAALHYLARLIEAGDLPTIVRRLLVISYEDIGLASPNAGQRTLAAIESAERLGLPEARIPLSQAVIELCLSPKSNSAMSAIDSALSDIRNGHVGQIPNHLKDGHYQGAKDLGRSIGYKYPHQYVNGYVSQQYLPDKLKNKIYYEPKTTSKSEQQLKEIYNNLLKEGHHHHHH	soluble
